Source: US20240342207, “MODIFIED NUCLEIC ACID COMPOSITIONS AND ASSOCIATED METHODS FOR TREATMENT OF PHENYLKETONURIA” (BOARD OF REGENTS, THE UNIVERSITY OF TEXAS SYSTEM, published 2024)

What was measured:
Conditions in all cases: tags: His-tag, E. coli; stem-loop
[1] = target: T1, PAH Y417H (Homo sapiens, UniProt P00439 P00439:1-452, Y417H); assay: EMSA; one of 13 of 17 binding mutants (identity from p198 list)
T1 sequence: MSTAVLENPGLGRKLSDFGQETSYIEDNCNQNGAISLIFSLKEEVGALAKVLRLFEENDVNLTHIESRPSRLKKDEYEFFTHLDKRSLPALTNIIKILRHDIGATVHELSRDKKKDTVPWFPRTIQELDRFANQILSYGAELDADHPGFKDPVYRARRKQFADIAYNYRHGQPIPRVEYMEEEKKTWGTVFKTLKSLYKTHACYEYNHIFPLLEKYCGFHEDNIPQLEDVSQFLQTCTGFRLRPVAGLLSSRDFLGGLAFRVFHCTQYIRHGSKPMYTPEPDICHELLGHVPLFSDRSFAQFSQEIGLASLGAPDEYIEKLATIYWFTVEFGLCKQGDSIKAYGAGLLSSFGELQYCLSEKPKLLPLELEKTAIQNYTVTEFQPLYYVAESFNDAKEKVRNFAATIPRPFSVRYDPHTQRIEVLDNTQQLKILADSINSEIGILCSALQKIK
Source text: (§1) It was reasoned that supplementing lncRNAs might improve the catalytic activities of the PAH mutants, leading to reduced serum Phe concentrations and improved symptoms in patients with PKU. Scramble (Scr) and HULC mimics representing wild-type HULC nt. 181-201 and HULC A191G mutated sequences were designed for the following studies. 17 PAH mutants that were identified from patients with PKU and are known to affect the enzymatic activity of PAH (21, 22) were selected, and bacterially-expressed wild-type and mutant PAH (FIG. 10 and see FIG. S13A in Li et al. 2021) were collected. […] The denatured wild-type PAH proteins were included as a negative control.
(§2) RNA Electrophoretic Mobility Shift Assay (EMSA). The gel mobility shift assay was performed as previously described (42). Briefly, 500 ng recombinant His-tagged wild-type PAH or mutants were incubated with 0.035 μmol labeled probe in a RNA-protein binding buffer [(50 mM Tris-HCl 7.9, 10% glycerol, 100 mM KCl, 5 mM MgCl₂, 10 mM (3-ME, 0.1% NP40] for 30 min at 30° C. For cold RNA competition, 0.035 μmol radiolabeled RNA probes were first mixed with 7 μmol cold RNA competitors and then subjected to the gel shift assay.

[2] = target: T2, PAH Y414C (Homo sapiens, UniProt P00439 P00439:1-452, Y414C); assay: as above
T2 sequence: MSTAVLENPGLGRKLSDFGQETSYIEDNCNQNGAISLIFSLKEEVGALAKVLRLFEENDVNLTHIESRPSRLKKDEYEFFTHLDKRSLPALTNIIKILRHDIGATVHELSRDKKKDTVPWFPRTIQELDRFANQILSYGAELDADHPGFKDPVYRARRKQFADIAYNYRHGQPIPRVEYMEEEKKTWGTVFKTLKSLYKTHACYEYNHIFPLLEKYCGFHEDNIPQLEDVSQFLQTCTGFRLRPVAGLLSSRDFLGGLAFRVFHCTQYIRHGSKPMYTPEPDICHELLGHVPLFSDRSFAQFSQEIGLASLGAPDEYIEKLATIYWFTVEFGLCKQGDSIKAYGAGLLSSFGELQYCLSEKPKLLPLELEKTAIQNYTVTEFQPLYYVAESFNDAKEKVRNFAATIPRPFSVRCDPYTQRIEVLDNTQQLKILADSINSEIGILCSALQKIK
Source text: as §1, §2

[3] = target: T3, PAH R157N (Homo sapiens, UniProt P00439 P00439:1-452, R157N); assay: EMSA; also decreased affinity in quantified assay
T3 sequence: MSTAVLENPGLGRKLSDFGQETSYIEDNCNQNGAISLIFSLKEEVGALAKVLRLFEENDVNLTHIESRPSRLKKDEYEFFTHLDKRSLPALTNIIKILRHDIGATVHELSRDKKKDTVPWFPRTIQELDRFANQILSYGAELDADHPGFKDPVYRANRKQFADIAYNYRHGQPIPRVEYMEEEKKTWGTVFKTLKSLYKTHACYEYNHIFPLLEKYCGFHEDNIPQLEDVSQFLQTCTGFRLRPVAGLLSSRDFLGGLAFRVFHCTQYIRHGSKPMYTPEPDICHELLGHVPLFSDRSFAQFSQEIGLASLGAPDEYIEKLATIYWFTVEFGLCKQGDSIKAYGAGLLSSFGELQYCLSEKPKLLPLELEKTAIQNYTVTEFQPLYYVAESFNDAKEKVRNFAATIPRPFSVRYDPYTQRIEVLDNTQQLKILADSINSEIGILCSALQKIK
Source text: as §1, §2

[4] = target: T4, PAH TH63-64PN (Homo sapiens, UniProt P00439 P00439:1-452, T63P,H64N); assay: EMSA; also decreased affinity in quantified assay
T4 sequence: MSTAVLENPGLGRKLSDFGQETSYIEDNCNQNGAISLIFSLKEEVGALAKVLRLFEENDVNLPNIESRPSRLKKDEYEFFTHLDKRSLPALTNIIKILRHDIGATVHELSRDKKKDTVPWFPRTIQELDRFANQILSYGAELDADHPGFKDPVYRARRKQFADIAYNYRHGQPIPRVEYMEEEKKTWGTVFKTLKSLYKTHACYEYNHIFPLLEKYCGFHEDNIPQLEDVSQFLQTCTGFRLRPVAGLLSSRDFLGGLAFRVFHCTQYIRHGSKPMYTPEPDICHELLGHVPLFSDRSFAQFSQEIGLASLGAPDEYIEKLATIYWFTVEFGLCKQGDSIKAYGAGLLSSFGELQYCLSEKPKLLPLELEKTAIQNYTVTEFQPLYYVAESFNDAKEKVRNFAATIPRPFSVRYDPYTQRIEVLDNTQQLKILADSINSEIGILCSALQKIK
Source text: as §1, §2

## CAAAAUGCAUAUGUAUCUUUG (ssRNA) [HULC 181-201 mimic]
[1]
  binding result: binds
[2]
  binding result: binds
[3]
  binding result: no binding
[4]
  binding result: no binding
